Source: FireProtDB (doi:10.1093/protein/7.6.777)

Conditions: Hordeum vulgare, whole UniProt chain shown
[1] = pH 3, Thermal, DSC, glycine-HCl 10 mM
[2] = pH 6.25, 25 °C, GdnHCl, Fluorescence, MES 50 mM

B1: Subtilisin-chymotrypsin inhibitor-2A wild type, P01053 (protein)
chain: MSSVEKKPEGVNTGAGDRHNLKTEWPELVGKSVEEAKKVILQDKPEAQIIVLPVGTIVTMEYRIDRVRLFVDKLDNIAQVPRVG
Tm [1]: 63.8 °C | unfolding enthalpy (calorimetric) [1]: 60 kcal/mol | denaturant m value [2]: 1.9 kcal/mol/M | denaturant midpoint (higher = more stable) [2]: 4 M | unfolding free energy [2]: 7.61 kcal/mol
